PMC9011129
Where two headings read alike, the source gives them in different places.

Key:
Larp-DM15 [1] = biological target: T1, Larp-DM15 (Drosophila melanogaster, UniProt Q9VAW5 1330-1481); assay: EMSA
Larp-DM15 [2] = biological target: T1, Larp-DM15; assay: EMSA; remark: listed apart in the source

T1 sequence (Q9VAW5 1330-1481): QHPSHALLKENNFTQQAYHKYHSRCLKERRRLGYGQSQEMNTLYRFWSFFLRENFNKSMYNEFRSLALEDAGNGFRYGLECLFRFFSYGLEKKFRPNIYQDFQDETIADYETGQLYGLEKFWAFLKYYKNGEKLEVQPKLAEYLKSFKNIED

Binder | binding result (Larp-DM15 [1]) | binding result (Larp-DM15 [2])
CUUUUUGGAAUACGAAGCUGACACCGCGUGGUGUUUUUGCUU (ssRNA, 5' cap (Vaccinia capping system)) [Non1 42-mer] | binds | 
CUUUUGCCAUUGUCAGCCGACGAAGUGCUUUAACCCAAACUA (ssRNA, 5' cap (Vaccinia capping system)) [RpL30 42-mer] |  | binds
GAAAAGCCAUUGUCAGCCGACGAAGUGCUUUAACCCAAACUA (ssRNA, 5' cap (Vaccinia capping system)) [Purine-substituted RpL30 control] |  | no binding
